Assay in all cases: two-hybrid library CCNG1;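 also: natural log of median RNA to DNA barcode read ratio; higher means stronger binding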
One experiment addresses T1, 4H2503-bA.
T1 chain: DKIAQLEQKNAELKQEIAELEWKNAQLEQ

A further experiment concerns the target T2, 4H2588-bA.
T2 chain: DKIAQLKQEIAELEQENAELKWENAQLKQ

The next experiment deals with T3, 4H741-bA.
T3 chain: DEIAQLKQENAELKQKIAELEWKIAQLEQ

The next experiment concerns the target T4, 4H2473-bA.
T4 chain: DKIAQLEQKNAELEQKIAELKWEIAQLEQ

The next experiment has as its target T5, 4H477-bA.
T5 chain: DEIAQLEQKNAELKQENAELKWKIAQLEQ

A further experiment deals with T6, 4H40-bA.
T6 chain: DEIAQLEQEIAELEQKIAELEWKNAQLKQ

In the next experiment the target is T7, 4H3057-bA.
T7 chain: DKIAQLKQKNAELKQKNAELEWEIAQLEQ

In another experiment the target is T8, 4H319-bA.
T8 chain: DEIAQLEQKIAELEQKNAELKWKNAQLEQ

The target in another experiment is T9, 4H2692-bA.
T9 chain: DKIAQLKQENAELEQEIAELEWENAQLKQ

Another experiment addresses T10, 4H2839-bA.
T10 chain: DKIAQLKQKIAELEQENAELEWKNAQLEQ

Another experiment addresses T11, 4H2915-bA.
T11 chain: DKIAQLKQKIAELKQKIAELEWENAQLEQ

The next experiment deals with T12, 4H492-bA.
T12 chain: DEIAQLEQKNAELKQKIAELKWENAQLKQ

A further experiment concerns the target T13, 4H2717-bA.
T13 chain: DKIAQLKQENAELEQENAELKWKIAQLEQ

The target of another experiment is T14, 4H2438-bA.
T14 chain: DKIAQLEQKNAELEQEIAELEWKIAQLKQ

In another experiment the target is T15, 4H3277-bA.
T15 chain: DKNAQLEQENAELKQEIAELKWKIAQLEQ

The target in a further experiment is T16, 4H348-bA.
T16 chain: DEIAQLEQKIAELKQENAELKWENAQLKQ

Another experiment has as its target T17, 4H967-bA.
T17 chain: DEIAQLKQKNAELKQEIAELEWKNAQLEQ

For another experiment, the target named is T18, 4H344-bA.
T18 chain: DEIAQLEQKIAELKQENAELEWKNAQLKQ

The target of the next experiment is T19, 4H3907-bA.
T19 chain: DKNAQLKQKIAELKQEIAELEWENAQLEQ

Another experiment addresses T20, 4H363-bA.
T20 chain: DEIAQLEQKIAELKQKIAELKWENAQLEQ

In a further experiment the target is T21, 4H3961-bA.
T21 chain: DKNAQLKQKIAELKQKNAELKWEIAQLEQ

Another experiment concerns the target T22, 4H470-bA.
T22 chain: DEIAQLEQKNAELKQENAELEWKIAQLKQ

In publication PMC10397247 one finds interaction score data, which are given here for two molecules.

Take DKIAQLEQKNAELEQEIAELEWKIAQLKQ [4H2438-bA]: the interaction score was 0.927 in the experiment with 4H2503-bA; -1.29 with 4H2588-bA; -0.215 with 4H741-bA; 1.36 with 4H2473-bA; -0.278 with 4H477-bA; -0.83 in the experiment with 4H40-bA. Further, the interaction score in the experiment with 4H3057-bA is 2.39; in the experiment with 4H319-bA it was -0.948; in the experiment with 4H2692-bA, 0.00488; in the experiment with 4H2839-bA it was 0.364; in the experiment with 4H2915-bA it was 1.77; in the experiment with 4H492-bA, 1.59. The interaction score is -0.288 in the experiment with 4H2717-bA; 1.74 with 4H2438-bA; -1.45 in the experiment with 4H3277-bA; 0.0426 in the experiment with 4H348-bA; -0.568 with 4H967-bA.

As to DEIAQLEQKIAELKQENAELEWKNAQLKQ [4H344-bA], the interaction score with 4H344-bA was -0.268; in the experiment with 4H3907-bA, 0.155; with 4H363-bA, -0.443; in the experiment with 4H3961-bA, 1.48; with 4H470-bA, 0.691.
